This note sets out measurements from paper PMC13649778, “Unraveling single-molecule reactions via multiplexed in-situ DNA sequencing”.

Residue numbers refer to the chain shown, from its start.

B1: CAPcons (consensus, pure; CAPcons_C, top 5G) (dsDNA)
DNA 1: GGCAGTGAGCTCTACGCAATAAATGTGATCTAGATCACATTTTAGGCAC
DNA 2: GTGCCTAAAATGTGATCTAGATCACATTTATTGCGTAGAGCTCACTGCC
B2: CAPcons position 5 C:G variant (pure; CAPcons_G) (dsDNA)
DNA 1: B1 DNA 1 with G25C
DNA 2: B1 DNA 2 with C25G
B3: CAPcons library member CAPcons_T (top 5A; table letter taken as bottom-strand base) (dsDNA)
DNA 1: B1 DNA 1 with G25A
DNA 2: B1 DNA 2 with C25T
B4: CAPcons library member CAPcons_C (consensus, top 5G) (dsDNA)
DNA 1: B1 DNA 1
DNA 2: B1 DNA 2
B5: CAPcons library member CAPcons_G (top 5C) (dsDNA)
DNA 1: B1 DNA 1 with G25C
DNA 2: B1 DNA 2 with C25G
B6: CAPcons library member CAPcons_A (top 5T; table letter taken as bottom-strand base) (dsDNA)
DNA 1: B1 DNA 1 with G25T
DNA 2: B1 DNA 2 with C25A

For the first series, the target named is T1, Alexa647-CAP (CAP-(Cys17;Ser178), catabolite activator protein) (Escherichia coli, UniProt P0ACJ8 1-210, H18C;C179S). Kind of series: single-molecule fluorescence (koff/kon); 0.2 mM cAMP, 10 mM Mg2+; 40 mM Tris pH 8, 100 mM KCl, 10 mM MgCl2, 5% glycerol, 0.2 mM cAMP, 1 mM TROLOX, glucose oxidase/catalase; 1.25 nM (pure) or 2.5 nM (library) Alexa647-CAP; temperature not stated. The settings on record: protein: recombinant; tags: His6; Alexa647 maleimide (40% labelled); chain copies: 2; label: Cy3B at top position 13; 5' biotin on bottom strand; blunt.
A word on the Kd: it is the free concentration of one partner at which half of the binding sites on the other are occupied at equilibrium, for simple one-to-one binding. Consider B1, for which the dissociation constant (Kd) amounted to 9.1 ± 0.6 nM.
Still for that read-out and setting: the same measure for B2: 20.2 ± 1.3 nM.

Another series deals with T1, Alexa647-CAP (CAP-(Cys17;Ser178), …). Kind of series: single-molecule fluorescence (SPIN-Seq library); 0.2 mM cAMP, 10 mM Mg2+; 40 mM Tris pH 8, 100 mM KCl, 10 mM MgCl2, 5% glycerol, 0.2 mM cAMP, 1 mM TROLOX, glucose oxidase/catalase; 1.25 nM (pure) or 2.5 nM (library) Alexa647-CAP; temperature not stated. The settings on record: protein: recombinant; tags: His6; Alexa647 maleimide (40% labelled); chain copies: 2; label: Cy3B at top position 11; 5' biotin on bottom strand; blunt.
For the molecule B3, the Kd is 24.4 ± 0.8 nM.
Same read-out and setting: under B4 stands 10.6 ± 0.6 nM.
With B5, the Kd worked out at 20.1 ± 0.9 nM.
On the same count and under the same terms, the same measure for B6: 29.1 ± 1.6 nM.
